The target in experiment [1] is T1, human TF (TF-positive MDA-MB-231 cells) (Homo sapiens, UniProt P13726).
T1 construct: Human TF-positive cancer cell lines A431 and MDA-MB-231; host or cells: MDA-MB-231
Description: FVIIa competition assay (FVII-Fc Alexa488) on MDA-MB-231 cells. To be noted: highest concentration of antibody; Example 26. The experiment is classed as binding.
Description: To evaluate competition between FVIJa and the human antibodies against TF, TF-positive MIDA-MB-231 cells (ATCC, Manassas, VA, USA) were first incubated for 1 hr on ice with a titration of the human antibodies against TF. Subsequently, a final concentration of 20 nM of FVII-Fc conjugated to Alexa488 was added to the antibody cell mixture. After another 1 hr incubation on ice, cells were washed, stained with a viability dye, and analyzed by flow cytometry. The Alexa488 fluorescence data from viable cells was summarized using median fluorescence intensity.
Subsequently, FVII-Fc conjugated to Alexa488 was added to the antibody-cell mixture at a final concentration of 20 nM. After another 1 hr incubation on ice, cells were washed, stained with a viability dye, and analyzed by flow cytometry. The Alexa488 fluorescence data from viable cells was summarized using median fluorescence intensity (MFI).

In the next experiment the test system is TF-positive A431 cells. Put plainly: Cytotoxicity assay of ADCs, A431 cells. It counts as cell-based, human. To be noted: Primary ADC. As to the method: To evaluate cytotoxicity of ADCs, TF-positive A431 and HPAF-II cells were plated in 384-well plates (Greiner Bio-One, Monroe, NC, USA) at 4×10^3 cells per well in 40 μL of media. Anti-TF antibodies conjugated to MC-vc-PAB-MMAE were serially diluted starting at 5 nM. Plates were incubated for 3 to 4 days, followed by lysis in CellTiter-Glo (CTG) assay reagent (Promega, Madison, WI, USA). CTG luminescence was measured on an Envision plate reader and the mean and standard deviation of 4 replicates were graphed in Prism.
To evaluate ADC cytotoxicity, A431 cells were plated in 384-well plates (Greiner Bio-One). Anti-TF antibodies conjugated to MC-vc-PAB-MMAE were serially diluted as shown. The TF-specific ADCs were added to A431 cells, with either a 72 h incubation or a 4 h incubation followed by removal of excess ADC and culture for another 68 h. A431 cells were lysed in CTG assay reagent after treatment. CTG luminescence was measured and the mean and standard deviation of 4 replicates graphed in Prism.

Experiment [2] deals with T1, human TF (TF-positive MDA-MB-231 cells). Put plainly: Antibody competition assay with 43D7 on MDA-MB-231 cells. The experiment is classed as binding. To be noted: 20 nM 43D7-Alexa488. As for the experimental part: (§1) Alexa Fluor antibodies were generated using Alexa Fluor 488 5-sulfo-[…] esters (ThermoFisher Scientific) following manufacturer's protocol. Excess Alexa Fluor dye was removed from the antibody dye conjugate preparations by gel filtration (ThermoFisher Scientific).
(§2) After another 1 hr incubation on ice, cells were washed, stained with a viability dye, and analyzed by flow cytometry. The Alexa488 fluorescence data from viable cells was summarized using median fluorescence intensity.

Experiment [3] has the same target. Description: Antibody competition assay with 39A on MDA-MB-231 cells. It counts as binding. As to conditions: 20 nM 39A-Alexa488. As to the method: as §1, §2
Experiment [4] deals with T2, chimeric human-rat TF constructs expressed on HEK293 cells (Homo sapiens, UniProt P13726, A112W/A121H/DEL115-116/DUP123-123/G113R/INS118HGKETLF/L125P/S120T/Y110V).
T2 construct: expressed in transfected cells; host or cells: HEK293
Put plainly: Epitope binning, chimeric TF construct mapping (live cell staining assay). The experiment is classed as binding. As to conditions: construct h78-93_r (18); human segment replaced by rat segment.

For experiment [5], the target named is T3, chimeric human-rat TF constructs expressed on HEK293 cells (Homo sapiens, UniProt P13726, A200N/K197R/K201T/N203H/S192D/S195T).
T3 construct: expressed in transfected cells; host or cells: HEK293
Described as above. To be noted: construct h159-174_r (6); human segment replaced by rat segment. The experiment is classed as binding.

Experiment [6] concerns the target T4, chimeric human-rat TF constructs expressed on HEK293 cells (Homo sapiens, UniProt P13726, D177Q/E160K/E162S/F148Y/I184G/K181N/L140I/N156K/N170G/R163F/R168K/S147K/S174T/T144V/T186I/V151G/V155L/W190R/Y188T).
T4 construct: expressed in transfected cells; host or cells: HEK293
The experiment is described as above. As to conditions: construct h108-158_r (19); human segment replaced by rat segment. The experiment is classed as binding.

The target in experiment [7] is T5, chimeric human-rat TF constructs expressed on HEK293 cells (Homo sapiens, UniProt P13726, D177Q/I184G/K181N/N170G/R168K/S174T/T186I/W190R/Y188T).
T5 construct: expressed in transfected cells; host or cells: HEK293
The description is as above. The experiment is classed as binding. To be noted: construct h133-158_r (9); human segment replaced by rat segment.

The target of experiment [8] is T6, chimeric human-rat TF constructs expressed on HEK293 cells (Homo sapiens, UniProt P13726, D177Q/N170G/R168K/S174T).
T6 construct: expressed in transfected cells; host or cells: HEK293
The experiment is described as above. It counts as binding. To be noted: construct h133-145_r (4); human segment replaced by rat segment.

In experiment [9] the target is T7, chimeric human-rat TF constructs expressed on HEK293 cells (Homo sapiens, UniProt P13726, D212E/E215V/N216S/S220F/V221A).
T7 construct: expressed in transfected cells; host or cells: HEK293
Described as above. To be noted: construct h175-189_r (5); human segment replaced by rat segment. The experiment is classed as binding.

Experiment [10] deals with T8, chimeric human-rat TF constructs expressed on HEK293 cells (Homo sapiens, UniProt P13726, D76N/E58Q/F108L/F82T/G75R/K100N/K47I/K73R/L104E/N50D/Q101W/Q64Y/S79Y/T72D/V62T/V65T/Y83G).
T8 construct: expressed in transfected cells; host or cells: HEK293
The description is as above. As to conditions: construct h1-77_r (25); human segment replaced by rat segment. The experiment is classed as binding.

This is an account of results in patent US20240166765A1, “INFLAMMATORY DISEASE TREATMENT USING ANTI-TISSUE FACTOR ANTIBODIES” (Iconic Therapeutics LLC, priority 2020, published 2024).

pIC50: −log10 of the molar value.

The term pIC50 denotes the negative decadic logarithm of the IC50, by convention in mol/L. Read a low pIC50 as a high IC50. Consider TF-011, for which the “competition with FVII” value in experiment [1] is reported as “effectively competed with FVII”. In addition, the negative logarithm of the IC50 (pIC50) is 9.77 in the experiment with TF-positive A431 cells (4 hr, followed by washout, FIG. 20B); 10.05 with TF-positive A431 cells (4 hr, followed by washout, FIG. 21A); 10.30 with TF-positive A431 cells (Continuous treatment, FIG. 20A). For the same substance, the “% 43D7 binding” value in experiment [2] is listed as “did not reduce”. In experiment [3], the “% 39A binding” value is reported as “reduced”. Moreover, the “Antibody binding to TF construct” value in experiment [4] is 1 (between 50% and 150%, the antibody was considered a binder (1)); in experiment [5] it was 1 (between 50% and 150%, the antibody was considered a binder (1)); in experiment [6], 1 (between 50% and 150%, the antibody was considered a binder (1)); in experiment [7] it was 1 (between 50% and 150%, the antibody was considered a binder (1)); in experiment [8], 1 (between 50% and 150%, the antibody was considered a binder (1)); in experiment [9], 1 (between 50% and 150%, the antibody was considered a binder (1)). In addition, in experiment [10], the “Antibody binding to TF construct” value was 0 (less than 50%, the antibody was considered a non-binder (0)).
